Each block holds one substance with its values, some of them ahead of it.
Legend:
[1] = target: insulin receptor, isoform B (human) (UniProt P06213); assay: competitive displacement, antibody-capture microtiter plate, IR isoform B
[2] = target: insulin receptor, isoform B (human) (UniProt P06213); assay: competitive displacement of 125I-insulin, antibody-capture microtiter plate, IR isoform B
[3] = target: Type I insulin-like growth factor receptor (UniProt P08069); assay: competitive displacement of 125I-IGF-1, antibody-capture microtiter plate, IGFR
IR = IR (Homo sapiens, UniProt P06213); details: relative to human insulin; cited from earlier work

Chain of Ala^A4-His^A8-DKP-insulin (ligand) (chain): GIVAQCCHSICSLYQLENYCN
Chain of Ala^A4-His^A8-DKP-insulin (ligand) (chain): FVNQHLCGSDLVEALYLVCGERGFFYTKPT
Chain of His^A4-His^A8-His^B1-insulin (ligand) (chain): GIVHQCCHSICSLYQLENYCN
Chain of His^A4-His^A8-His^B1-insulin (ligand) (chain): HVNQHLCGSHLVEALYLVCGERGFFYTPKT

relative affinity for IR (percent of human insulin) [1]: 384%
Substance: Ala^A4-His^A8-DKP-insulin (ligand)

relative affinity for IR (percent of human insulin) [2]: 91%
relative affinity for IGFR (percent of IGF-I) [3]: 0.13%
Substance: Dab^A8-insulin (ligand)

relative affinity for IR (percent of human insulin) [1]: 125%
Substance: His^A4-His^A8-His^B1-insulin (ligand)

Substance: insulin Detemir®
affinity for IR / receptor binding (IR): decreased affinity
